Source: article PMC3726683, “Autophagy Activation Clears ELAVL1/HuR-Mediated Accumulation of SQSTM1/p62 during Proteasomal Inhibition in Human Retinal Pigment Epithelial Cells”

Legend:
[1] = target: T1, ELAVL1/HuR (rHuR) (human, UniProt Q15717 1-326); assay: AlphaScreen saturation binding; RNA titrated against 1 nM HuR; R2 0.97; Methods print 0.087±0.021 without unit; 25 mM HEPES pH 7.4, 100 mM NaCl, 0.1% BSA, room temperature, 30 min then 90 min with donor beads; settings: protein: recombinant; tags: C-terminal Myc-His (vector section) or MYC/DDK (assay section, TP301562); label: biotin (BITEG); single strand
T1 sequence (Q15717 whole entry): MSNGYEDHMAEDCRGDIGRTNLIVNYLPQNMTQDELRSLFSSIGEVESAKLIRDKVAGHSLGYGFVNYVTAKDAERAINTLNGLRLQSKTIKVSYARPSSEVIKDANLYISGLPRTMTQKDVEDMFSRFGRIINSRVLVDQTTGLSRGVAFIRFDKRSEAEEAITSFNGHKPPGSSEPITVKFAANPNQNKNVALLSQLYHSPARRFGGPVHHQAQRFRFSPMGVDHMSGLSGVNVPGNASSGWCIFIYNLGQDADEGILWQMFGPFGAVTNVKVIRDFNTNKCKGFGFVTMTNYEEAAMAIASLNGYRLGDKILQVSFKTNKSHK

[2] = target: T1, ELAVL1/HuR (rHuR); assay: AlphaScreen saturation binding; RNA titrated against 1 nM HuR; R2 0.91; Methods print 0.207±0.024 without unit; 25 mM HEPES pH 7.4, 100 mM NaCl, 0.1% BSA, room temperature, 30 min then 90 min with donor beads; settings: protein: recombinant; tags: C-terminal Myc-His (vector section) or MYC/DDK (assay section, TP301562); label: biotin (BITEG); single strand

Binder | Kd [1] [nM] | Kd [2] [nM]
AUUAUUUAUUAUUUAUUUAUUAUUUA (ssRNA) [TNFalpha ARE probe] | 3.83 ± 0.69 | 
GUUUUAAAUGACUCAUAGGUCCCUGACAUUUAGUUGAUU (ssRNA) [SQSTM1/p62 ARE probe] |  | 30.9 ± 13.2
